{"source": "patent US9909146B2", "about": "“Production of alkenes by enzymatic decarboxylation of 3-hydroxyalkanoic acids” (priority 2008, dated 2018)", "key": {"[1]": {"target": "T1, enzyme SEQ ID NO: 6 (MDP decarboxylase) (Picrophilus torridus, UniProt Q6KZB1)", "T1 construct": "6-Histidine tag (N); made in house; host or cells: E. coli BL21(DE3)", "T1 sequence (Q6KZB1 1-324)": "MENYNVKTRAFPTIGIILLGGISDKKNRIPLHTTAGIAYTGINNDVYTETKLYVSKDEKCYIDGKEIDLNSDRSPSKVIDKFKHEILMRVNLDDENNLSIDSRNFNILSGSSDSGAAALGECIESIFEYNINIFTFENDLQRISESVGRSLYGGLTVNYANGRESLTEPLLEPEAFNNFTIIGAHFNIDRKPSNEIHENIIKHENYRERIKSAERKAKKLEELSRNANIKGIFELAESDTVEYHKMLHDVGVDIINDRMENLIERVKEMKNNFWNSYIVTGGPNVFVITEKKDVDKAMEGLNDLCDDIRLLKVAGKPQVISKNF", "experiment": "Effect of ATP co-substrate and Mg2+ cofactor on IBN production by enzyme SEQ ID NO: 6", "assay_type": "biochemical", "conditions": "1 mg/ml enzyme, 72 h at 30° C.", "description": "Effect of ATP Co-Substrate\n(§1) 200 mM HIV (to be specified)\n(§2) Incubation 72 h at 30° C.\nOther molecules, and in particular those containing a phosphoanhydride bond, could also be efficient co-substrates for the enzyme.\nOther ions, and in particular other divalent ions, could be used as cofactor in place of or in addition to Mg^2+ ions."}, "[2]": {"target": "T1, enzyme SEQ ID NO: 6 (MDP decarboxylase)", "experiment": "Substrate range test, Km of enzyme SEQ ID NO: 6 for HIV", "assay_type": "biochemical", "conditions": "previously described conditions, incubation at 50° C., read-out: Km of the enzyme / affinity for HIV", "description": "FIG. 13: IBN production according to concentration of HIV substrate.\nA substrate range was tested in the previously described conditions, with incubation at 50° C. The Km of the enzyme is approximately 40 mM HIV."}, "[3]": {"target": "T2, MDP decarboxylase of Saccharomyces cerevisiae (Saccharomyces cerevisiae, UniProt P32377)", "T2 construct": "made in house; host or cells: E. coli BL21", "T2 sequence (P32377 1-396)": "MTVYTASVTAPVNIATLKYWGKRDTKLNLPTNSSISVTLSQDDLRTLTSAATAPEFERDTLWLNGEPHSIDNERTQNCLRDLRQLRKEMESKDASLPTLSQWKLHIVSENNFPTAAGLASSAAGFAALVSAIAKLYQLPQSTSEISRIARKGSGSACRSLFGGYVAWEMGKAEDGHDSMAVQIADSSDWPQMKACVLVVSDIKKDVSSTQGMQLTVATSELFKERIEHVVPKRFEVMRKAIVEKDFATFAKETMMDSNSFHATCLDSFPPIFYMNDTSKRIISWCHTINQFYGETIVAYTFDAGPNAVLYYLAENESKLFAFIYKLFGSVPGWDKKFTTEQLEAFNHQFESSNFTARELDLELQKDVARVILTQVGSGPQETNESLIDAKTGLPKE", "experiment": "Activity of protein extract (S. cerevisiae MDP decarboxylase) towards 3-hydroxy-3-methylbutyrate, with or without cofactor", "assay_type": "biochemical", "description": "The gene encoding MDP decarboxylase of Saccharomyces cerevisiae is synthesized from overlapping oligonucleotides and cloned in a pET plasmid (Novagen) allowing expression in bacteria. Said plasmid is then transformed by electroporation into bacterial strain BL21 (Invitrogen). The bacteria are streaked on a Petri dish containing ampicillin and incubated at 37° C. The next day, a bacterial colony is randomly selected and used to inoculate 50 ml of LB medium containing ampicillin. The culture is incubated for 24 h while shaking, after which the culture is centrifuged, the bacteria lysed by sonication, and a total protein extract prepared. An aliquot of the extract is loaded on an electrophoresis gel together with a protein extract from the same strain which has not been transformed, and with molecular weight markers. […]\nVials are sealed with a septum and crimped. […] After incubation, a gas syringe is used to collect the gas present in each vial, and the CO2 concentration in the samples is measured by gas chromatography. […] The presence of isobutylene in the gas sample from vial 6 is then measured by gas chromatography with infrared or flame ionization detection. […]\nAs in the previous example, isobutylene formation is measured by gas chromatography with infrared or flame ionization detection."}, "[4]": {"experiment": "Screening of a library of 63 MDP decarboxylase family enzymes for activity on HIV", "assay_type": "biochemical", "conditions": "200 mM HIV, 10 mM ATP, pH 5.5 or 7.0, 37° C. for 72 h, GC/MS", "excerpt": "A library of 63 genes encoding enzymes from the MDP decarboxylase family was obtained and tested for activity on HIV as substrate.\nThe genes encoding the mevalonate diphosphate (MDP) decarboxylase family EC 4.1.1.33 were cloned in the pET 25b vector (Novagen) in the case of eukaryotic genes and pET 22b (Novagen) for genes of prokaryotic origin, with a 6-Histidine tag at the N-terminal end immediately after the methionine initiation codon. Competent E. coli BL21(DE3) cells (Novagen) were transformed with these vectors by heat shock. The cells were grown with shaking (160 rpm) at 30° C. in TB medium containing 0.5 M sorbitol, 5 mM betain, 100 μg/ml ampicillin until reaching an OD at 600 nm comprised between 0.8 and 1. Isopropyl-B-D-thiogalactopyranoside (IPTG) was then added to a final concentration of 1 mM and protein expression was continued at 20° C. overnight (approximately 16 h). The cells were collected by centrifugation at 4° C., 10,000 rpm for 20 min and the pellets were frozen at −80° C. […]\nThe clarified bacterial lysates were loaded on a PROTINO-1000 Ni-IDA column (Macherey-Nagel) allowing adsorption of 6-His tag proteins. […] Protein was quantified by the Bradford method. […]\nThe gas present above the reactions was collected with a syringe equipped with a no-return mechanism. The gas sample was analyzed by gas chromatography (GC) coupled with mass spectrometry (MS). […]"}, "[5]": {"experiment": "Conversion of HIV to isobutylene (IBN) by purified enzyme SEQ ID NO: 6, GC measurement", "assay_type": "biochemical, Picrophilus torridus", "description": "The recombinant enzyme was purified as described in example 4.\nThe activity of the isolated enzyme was confirmed. The reaction was carried out in the following conditions:\nAfter 72 h incubation at 30° C., the signal was measured by GC/MS. In the presence of the enzyme, IBN production was increased here by approximately 2.3-fold over background noise. The background noise observed here is in agreement with the organic chemistry literature, showing that in aqueous solution and at a temperature of around 100° C., 3-hydroxyisovaleric acid slowly decarboxylates to tert-butanol, which is partially dehydrated to isobutylene, following an equilibrium favorable to the formation of tert-butanol (Pressman and Luca, J. Am. Chem. Soc. 1940).\nEnzymatic Activity According to Temperature\nas §1\nIncubation 72 h at different temperatures.\nas §2\nOptimal conditions were obtained with a pH of 5.5 in 100 mM citrate.\nOptimization of Reaction Conditions\nOptimum reaction conditions were sought, and the following conditions were retained:\nIncubation 48 h at 50° C."}}}
{"molecule": "Nc1ncnc2c1ncn2[C@@H]1O[C@H](COP(=O)(O)OP(=O)(O)OP(=O)(O)O)[C@@H](O)[C@H]1O", "note": "[ATP]", "values": [{"measurement": "enzyme activity (IBN production) in presence and absence of ATP", "setting": "[1]; 0 or 10 mM ATP, 100 mM citrate pH 5.5, 200 mM HIV", "result": "only observed in the presence"}]}
{"molecule": "CC(C)(O)CC(=O)O", "note": "[HIV, 3-hydroxy-3-methylbutyrate]", "values": [{"measurement": "Km", "setting": "[2]", "result": "~40", "unit": "mM"}, {"measurement": "reaction of the enzyme preparation (CO2 detected by gas chromatography)", "setting": "[3]; vial 6, 5 mM ATP, 10 mM MgCl2, 37° C., 4 hours to 3 days", "result": "significant reaction"}]}
{"molecule": "[Mg+2]", "note": "[Mg^2+]", "values": [{"measurement": "enzyme activity (IBN production) in presence and absence of Mg2+", "setting": "[1]; 0 or 5 mM MgCl2, 100 mM citrate pH 5.5, 10 mM ATP, 200 mM HIV", "result": "improved"}]}
{"molecule": "CCOP(=O)(O)OP(=O)(O)O", "note": "[ethyl diphosphate, reference compound]", "values": [{"measurement": "amount of isobutylene produced over time with cofactor", "setting": "[3]; 10 μl of 10 mg/l ethyl diphosphate added to 3-hydroxy-3-methylbutyrate reaction", "result": "markedly higher"}]}
{"molecule": "Candidate 10: purified decarboxylase enzyme of SEQ ID NO: 6 from Picrophilus torridus, Q6KZB1, N-terminal His tag (protein, N-terminal His tag) MENYNVKTRAFPTIGIILLGGISDKKNRIPLHTTAGIAYTGINNDVYTETKLYVSKDEKCYIDGKEIDLNSDRSPSKVIDKFKHEILMRVNLDDENNLSIDSRNFNILSGSSDSGAAALGECIESIFEYNINIFTFENDLQRISESVGRSLYGGLTVNYANGRESLTEPLLEPEAFNNFTIIGAHFNIDRKPSNEIHENIIKHENYRERIKSAERKAKKLEELSRNANIKGIFELAESDTVEYHKMLHDVGVDIINDRMENLIERVKEMKNNFWNSYIVTGGPNVFVITEKKDVDKAMEGLNDLCDDIRLLKVAGKPQVISKNF", "values": [{"measurement": "level of isobutylene (IBN) production in library screening", "setting": "[4]", "result": "highest levels"}, {"measurement": "IBN production in presence of enzyme over background noise", "setting": "[5]; 100 mM Tris-HCl, 10 mM MgCl2, 10 mM ATP, 20 mM KCl, pH 6.0, 3 mg/ml enzyme, 72 h at 30° C., GC/MS", "result": "approximately 2.3 fold"}, {"measurement": "temperature optimum of enzymatic activity", "setting": "[5]; 100 mM buffer, 50 mM KCl, 10 mM ATP, 200 mM HIV, 1 mg/ml enzyme, 72 h at different temperatures", "result": "approximately 50 °C"}, {"measurement": "optimal pH of enzymatic activity", "setting": "[5]; 100 mM citrate, 50 mM KCl, 10 mM ATP, 200 mM HIV, 1 mg/ml enzyme, 72 h at 30° C.", "result": 5.5}, {"measurement": "signal-to-noise ratio (measured in the absence of enzyme) for the conversion yield", "setting": "[5]; in some conditions, example 5", "result": "approximately 100 fold"}, {"measurement": "ratio of the signal over background noise", "setting": "[5]; optimized: 100 mM citrate, 50 mM KCl, 40 mM ATP, 200 mM HIV, 1 mg/ml enzyme, 48 h at 50° C., GC-FID", "result": "approximately 100"}]}
